Target: HLA-A2 molecules on T2 cells (human)
Experiment: T2 cell-binding assay, flow cytometry of HLA-A2 on T2 cells, peptide 25 µg/mL; negative control
Conditions: remark: other sources report otherwise

## HLFGYSWYK [CAP-7 peptide]
  T2 Binding (mean fluorescence intensity): 88 MFI

Source: patent US20140287029A1
